Test results reported in patent publication US20140205612A1 (published 2014).
Residue numbers refer to the chain shown, from its start.

B1: 1456_P20 (PG20) (antibody, human IgG1, kappa, V domains shown)
VH: QVRLVQSGPEVKKPGSSVTVSCQASGGTFSSYAFTWVRQAPGQGLEWLGMVTPIFGEAKYSQRFEGRVTITADESTSTTSIELRGLTSEDTAIYYCARDRRAVPIATDNWLDPWGQGTLVTVSS
VL: DIQLTQSPSSLSASVGDRVSITCRASQTINNYLNWYQQTPGKAPKLLIYGASNLQNGVPSRFSGSGSGTDFTLTISSLQPEDFATYYCQQSFSTPRTFGQGTRLDIKR
B2: 1460_G14 (PGG14) (antibody, human IgG1, kappa, V domains shown)
VH: QVLLVQSGTEVKKPGSSVKVSCQASGGAFSSYAFSWVRQAPGQGLEWMGMITPVFGETKYAPRFQGRLTLTAEESLSTTYMELRSLTSDDTAFYYCTRDRRVVPMATDNWLDPWGQGTLVTVSS
VL: B1 VL with S20T, I21V, N30H, N31T, T39I, N53T, N56S, S76N, F92Y
B3: 1495_C14 (PGC14) (antibody, human IgG1, lambda, V domains shown)
VH: DGHLVQSGVEVKKTGATVKISCKVSGYSFIDYYLHWVQRAPGKGLEWVGLIDPENGEARYAEKFQGRVTIIADTSIDTGYMEMRSLKSEDTAVYFCAAGAVGADSGSWFDPWGQGTLVTVSS
VL: SYELTQPPSVSVSPGQTASITCSGSKLGDKYVSWYQLRPGQSPILVMYENDRRPSGIPERFSGSNSGDTATLTISGTQALDEADFYCQAWETTTTTFVFFGGGTQLTVLG
B4: 1443_C16 (PG16) (TCN-116) (antibody, V domains shown)
VH: QEQLVESGGGVVQPGGSLRLSCLASGFTFHKYGMHWVRQAPGKGLEWVALISDDGMRKYHSDSMWGRVTISRDNSKNTLYLQFSSLKVEDTAMFFCAREAGGPIWHDDVKYYDFNDGYYNYHYMDVWGKGTTVTVSS
VL: QSALTQPASVSGSPGQTITISCNGTSSDVGGFDSVSWYQQSPGKAPKVMVFDVSHRPSGISNRFSGSKSGNTASLTISGLHIEDEGDYFCSSLTDRSHRIFGGGTKVTVLG
B5: 1496_C09 (PG9) (TCN-109) (antibody, V domains shown)
VH: QRLVESGGGVVQPGSSLRLSCAASGFDFSRQGMHWVRQAPGQGLEWVAFIKYDGSEKYHADSVWGRLSISRDNSKDTLYLQMNSLRVEDTATYFCVREAGGPDYRNGYNYYDFYDGYYNYHYMDVWGKGTTVTVSS
VL: QSALTQPASVSGSPGQSITISCNGTSNDVGGYESVSWYQQHPGKAPKVVIYDVSKRPSGVSNRFSGSKSGNTASLTISGLQAEDEGDYYCKSLTSTRRRVFGTGTKLTVLG

Legend:
[1] = target: T1, recombinant monomeric gp120 JR-CSF (HIV-1 JR-CSF, UniProt P20871 32-503); experiment: mAb Specificity column, ELISA screen
T1 construct: domain: gp120; also called JR-CSF gp120; JR-CSFgp120
Method: In anti-gp120 ELISA, recombinant gp120 (0.5 μg/ml) was captured on 384 well ELISA plates pre-coated (at 4° C. overnight) with goat anti-gp120 (5 μg/ml) in BSA-containing assay buffer (PBS with 0.05% Tween-20) for 1 hr at room temperature. After excess gp120 was removed and plates were washed thrice with assay buffer, B cell culture supernatants diluted 5-fold was added to incubate for 1 hr at room temperature. Following three washes in assay buffer, secondary HRP-conjugated goat anti-human Ig Fc in BSA-containing assay buffer was added and incubated for about 1 hr at room temperature. 3,3′,5,5′-tetramethylbenzidine (TMB) substrate was used to develop the colorimetric readouts after washing the ELISA plates 3 times.

[2] = target: 92RW020 Env on pseudovirus (HIV-1 92RW020); experiment: cell-based or functional assay
[3] = target: JR-FL(E168K) Env on pseudovirus (HIV-1 JR-FL); experiment: cell-based or functional assay
ADA Env on pseudovirus = ADA Env on pseudovirus (HIV-1 ADA); experiment: cell-based or functional assay
[4] = target: HIV-1 JR-CSF Env on pseudovirus (HIV-1 JR-CSF, UniProt P20871 32-848); experiment: cell-based or functional assay

Row | Binder | binding result [1] | IC50 (ug/ml), pseudovirus neutralization, TZM-bl assay [2] | IC50 (ug/ml), pseudovirus neutralization, TZM-bl assay [3] | IC50 (ug/ml), pseudovirus neutralization, TZM-bl assay (ADA Env on pseudovirus) | IC50 (ug/ml), pseudovirus neutralization, TZM-bl assay [4]
1 | B1 | binds | – | – | – | –
2 | B2 | binds | – | – | – | –
3 | B3 | binds | – | – | – | –
4 | B4 | – | 0.09 µg/mL | 0.006 µg/mL | 0.004 µg/mL | 0.001 µg/mL
5 | B5 | – | 0.1 µg/mL | – | 0.2 µg/mL | –
